In paper PMC9198812, “Residues located in the primase domain of the bacteriophage T7 primase-helicase are essential for loading the hexameric complex onto DNA” (The Journal of Biological Chemistry, 2022):
Residue numbers refer to the chain shown, from its start. In names and notes the source's numbering stands.

Molecular target: the molecule itself
Assay: mass photometry; self-association, monomers to hexamer; 8.7 nM gp4 (hexamer concentration) in 40 mM Tris-HCl pH 7.5, 150 mM KCl, 10 mM MgCl2, 25 °C, 15 min, with 10 nM 50-nt ssDNA and 1 mM [β,γ-CH2] dTTP; Refeyn OneMP

B1: bacteriophage T7 primase-helicase gp4, wild type (63 kDa form) (enzyme, UniProt P03692 1-566, looked up)
chain: MDNSHDSDSVFLYHIPCDNCGSSDGNSLFSDGHTFCYVCEKWTAGNEDTKERASKRKPSGGKPMTYNVWNFGESNGRYSALTARGISKETCQKAGYWIAKVDGVMYQVADYRDQNGNIVSQKVRDKDKNFKTTGSHKSDALFGKHLWNGGKKIVVTEGEIDMLTVMELQDCKYPVVSLGHGASAAKKTCAANYEYFDQFEQIILMFDMDEAGRKAVEEAAQVLPAGKVRVAVLPCKDANECHLNGHDREIMEQVWNAGPWIPDGVVSALSLRERIREHLSSEESVGLLFSGCTGINDKTLGARGGEVIMVTSGSGMGKSTFVRQQALQWGTAMGKKVGLAMLEESVEETAEDLIGLHNRVRLRQSDSLKREIIENGKFDQWFDELFGNDTFHLYDSFAEAETDRLLAKLAYMRSGLGCDVIILDHISIVVSASGESDERKMIDNLMTKLKGFAKSTGVVLVVICHLKNPDKGKAHEEGRPVSITDLRGSGALRQLSDTIIALERNQQGDMPNLVLVRILKCRFTGDTGIAGYMEYNKETGWLEPSSYSGEEESHSESTDWSNDTDF
notes: bacteriophage T7 gene 4 primase-helicase, full-length 63 kDa form (residues 1-566); also called WT gp4; gp4A
- stoichiometry N: 6

B2: bacteriophage T7 primase-helicase gp4 Y111A (63 kDa form) (enzyme, UniProt P03692 1-566, looked up)
chain: B1 chain with Y111A
notes: bacteriophage T7 gene 4 primase-helicase, 63 kDa form (residues 1-566), with Y111A made by site-directed mutagenesis on pET28-gp4A; also called Y111A gp4; gp4-Y11A [sic]
- stoichiometry N: 6
